± gives the uncertainty stated by the source.
Experiment: self-splicing fitness, log relative to wild type (ln ratio); higher = more splicing; Tetrahymena group I intron in knt gene, E. coli kanamycin selection, DiMSum; sequences stand for … in CUCUCU…GGAGGGAAAAGUUAUCAGGCAUGCACCUGGUAGCUAGUCUUUAAACCAAUAGAUUGCAUCGGUUUAAAAGGCAAGACCGUCAAAUUGCGGGAAAGGGGUCAACAGCCGUUCAGUACCAAGUCUCAGGGGAAACUUUGAGAUGGCCUUGCAAAGGGUAUGGUAAUAAGCUGACGGACAUGGUCCUAACCACGCAGCCAAGUCCUAAGUCAACAGAUCUUCUGUUGAUAUGGAUGCAGUUCACAGACUAAAUGUCGGUCGGGGAAGAUGUAUUCUUCUCAUAAGAUAUAGUCGGACCUCUCCUUAAUGGGAGCUAGCGGAUGAAGUGAUGCAACACUGGAGCCGCUGGGAACUAAUUUGUAUGCGAAAGUAUAUUGAUUAGUUUUGGAGUACUCGUGGUCG
Summary of the method: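 Pooled colonies went to amplicon sequencing on an Illumina HiSeq 2500 after six replicate transformations. The plates were LB agar with 100 μg/mL carbenicillin, 50 μM IPTG and 0.2% rhamnose, with or without 25 μg/mL kanamycin, incubated overnight at 37°C or 30°C. The E. coli BL21(DE3) library had all eight P1ex-region intron nucleotides randomised, the intron placed in the knt kanamycin-resistance gene on pET-22b(+). DiMSum fitness is the error-weighted combination of replicate fold changes, kanamycin against none, normalised to wild type.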

| Sequence | self-splicing fitness (ln) (30 °C) | self-splicing fitness (ln) (37 °C) |
| --- | --- | --- |
| GGCAAGCAAUAUUACGCAUC | -0.644 ± 0.078 | -0.532 ± 0.1 |
| GGCAAGCAAUAUUACGCAUG | -2.17 ± 0.12 | -1.36 ± 0.16 |
| GGCAAGCAAUAUUACGCCGG | -2.81 ± 0.3 | -3.19 ± 0.22 |
| GGCAAGCAAUAUUACGCUCU | -2.51 ± 0.17 | -1.96 ± 0.18 |
| GGCAAGCAAUAUUACGCUGA | -1.13 ± 0.12 | -1.27 ± 0.14 |
| GGCAAGCAAUAUUACGGAAG | -2.84 ± 0.1 | -1.37 ± 0.1 |
| GGCAAGCAAUAUUACGGACA | -0.577 ± 0.085 | -0.00922 ± 0.11 |
| GGCAAGCAAUAUUACGGCCA | -1.24 ± 0.17 | -0.0702 ± 0.17 |
| GGCAAGCAAUAUUACGGCGA | -0.134 ± 0.082 | 0.235 ± 0.11 |
| GGCAAGCAAUAUUACGGGAU | -2.31 ± 0.086 | -0.713 ± 0.089 |
| GGCAAGCAAUAUUACGGGUA | -1.57 ± 0.1 | -0.544 ± 0.11 |
| GGCAAGCAAUAUUACGGGUC | -3.2 ± 0.17 | -0.979 ± 0.12 |
| GGCAAGCAAUAUUACGUUGC | -3.67 ± 0.37 | -2.42 ± 0.39 |
| GGCAAGCAAUAUUACGUUUG | -3 ± 0.13 | -2.83 ± 0.22 |
| GGCCAGCAAUAUUACGAAAC | -0.973 ± 0.079 | 0.00581 ± 0.1 |
| GGCCAGCAAUAUUACGACCC | – | -1.48 ± 0.44 |
| GGCCAGCAAUAUUACGACGU | -0.821 ± 0.083 | 0.2 ± 0.12 |
| GGCCAGCAAUAUUACGAUAG | -3.68 ± 0.46 | -2.95 ± 0.23 |
| GGCCAGCAAUAUUACGAUUC | -0.666 ± 0.067 | -0.139 ± 0.099 |
| GGCCAGCAAUAUUACGCACC | -2.17 ± 0.12 | -0.636 ± 0.14 |
| GGCCAGCAAUAUUACGCCCU | -1.37 ± 0.16 | -0.726 ± 0.15 |
| GGCCAGCAAUAUUACGCCGA | -1.54 ± 0.16 | -1.18 ± 0.14 |
| GGCCAGCAAUAUUACGCCGC | -4.33 ± 0.39 | – |
| GGCCAGCAAUAUUACGCGAA | -0.824 ± 0.12 | -1.41 ± 0.14 |
| GGCCAGCAAUAUUACGCGAU | -3.5 ± 0.14 | -2.17 ± 0.14 |

| Sequence | self-splicing fitness (ln) (30 °C) | self-splicing fitness (ln) (37 °C) |
| --- | --- | --- |
| GGCCAGCAAUAUUACGCGGA | -1.17 ± 0.12 | -0.716 ± 0.1 |
| GGCCAGCAAUAUUACGCUAC | -4.15 ± 0.3 | -2.57 ± 0.23 |
| GGCCAGCAAUAUUACGCUCC | -3.17 ± 0.24 | -1.38 ± 0.24 |
| GGCCAGCAAUAUUACGGGGG | -3.54 ± 0.18 | -1.85 ± 0.17 |
| GGCCAGCAAUAUUACGGGUG | -1.02 ± 0.049 | -0.536 ± 0.065 |
| GGCCAGCAAUAUUACGGUUC | -3.72 ± 0.17 | -0.463 ± 0.12 |
| GGCCAGCAAUAUUACGUACG | -1.8 ± 0.11 | -1.1 ± 0.12 |
| GGCCAGCAAUAUUACGUACU | -0.417 ± 0.08 | -0.256 ± 0.093 |
| GGCCAGCAAUAUUACGUAUC | -0.633 ± 0.069 | -0.494 ± 0.081 |
| GGCCAGCAAUAUUACGUGCC | -3 ± 0.15 | -0.478 ± 0.24 |
| GGCGAGCAAUAUUACGACGA | -3.06 ± 0.32 | -1.32 ± 0.26 |
| GGCGAGCAAUAUUACGACUA | -0.848 ± 0.12 | -0.00409 ± 0.11 |
| GGCGAGCAAUAUUACGAGUG | -1.67 ± 0.19 | -1.47 ± 0.3 |
| GGCGAGCAAUAUUACGAGUU | -2.42 ± 0.14 | -1.19 ± 0.16 |
| GGCGAGCAAUAUUACGAUGC | -1.04 ± 0.16 | -1.43 ± 0.26 |
| GGCGAGCAAUAUUACGCCUU | -3.21 ± 0.3 | -1.81 ± 0.26 |
| GGCGAGCAAUAUUACGCGAG | -2.7 ± 0.24 | -2.24 ± 0.32 |
| GGCGAGCAAUAUUACGCGCG | – | -0.647 ± 0.18 |
| GGCGAGCAAUAUUACGCGGU | -3.13 ± 0.21 | -1.69 ± 0.22 |
| GGCGAGCAAUAUUACGCGUC | – | -2.65 ± 0.39 |
| GGCGAGCAAUAUUACGGCAG | – | -1.94 ± 0.36 |
| GGCGAGCAAUAUUACGGUUG | -2.57 ± 0.14 | -0.892 ± 0.16 |
| GGCGAGCAAUAUUACGUAAA | -2.28 ± 0.16 | -1.06 ± 0.15 |
| GGCGAGCAAUAUUACGUAAU | -1.4 ± 0.13 | -0.339 ± 0.14 |
| GGCGAGCAAUAUUACGUACU | -0.65 ± 0.13 | -0.094 ± 0.15 |

| Sequence | self-splicing fitness (ln) (30 °C) | self-splicing fitness (ln) (37 °C) |
| --- | --- | --- |
| GGCGAGCAAUAUUACGUCGU | -3.86 ± 0.22 | -2.3 ± 0.32 |
| GGCGAGCAAUAUUACGUCUA | -1.86 ± 0.19 | -0.451 ± 0.15 |
| GGCGAGCAAUAUUACGUCUG | -4.26 ± 0.29 | -2.53 ± 0.16 |
| GGCGAGCAAUAUUACGUGAU | -2.26 ± 0.15 | -1.08 ± 0.14 |
| GGCGAGCAAUAUUACGUUGG | -3.75 ± 0.32 | -2.92 ± 0.35 |
| GGCGAGCAAUAUUACGUUUC | -2.07 ± 0.23 | -1.99 ± 0.26 |
| GGCUAGCAAUAUUACGAUAG | – | -2.41 ± 0.39 |
| GGCUAGCAAUAUUACGAUUC | -0.162 ± 0.098 | -0.0286 ± 0.13 |
| GGCUAGCAAUAUUACGCAAA | -1.68 ± 0.18 | -0.628 ± 0.16 |
| GGCUAGCAAUAUUACGCAAU | -0.887 ± 0.14 | -0.69 ± 0.16 |
| GGCUAGCAAUAUUACGCAGC | – | -2.29 ± 0.39 |
| GGCUAGCAAUAUUACGCAUC | 0.346 ± 0.16 | 0.785 ± 0.17 |
| GGCUAGCAAUAUUACGCCGA | -1.8 ± 0.28 | -1.05 ± 0.25 |
| GGCUAGCAAUAUUACGCGGG | -3.62 ± 0.25 | -3.06 ± 0.27 |
| GGCUAGCAAUAUUACGCUAC | -3.04 ± 0.48 | -2.3 ± 0.34 |
| GGCUAGCAAUAUUACGCUCA | -2.07 ± 0.33 | -0.183 ± 0.25 |
| GGCUAGCAAUAUUACGUCUC | -0.325 ± 0.094 | -0.0256 ± 0.11 |
| GGCUAGCAAUAUUACGUGAA | -0.24 ± 0.086 | -0.383 ± 0.086 |
| GGCUAGCAAUAUUACGUGUU | -1.02 ± 0.058 | 0.41 ± 0.063 |
| GGGAAGCAAUAUUACGAAGU | -2.43 ± 0.29 | -1.83 ± 0.35 |
| GGGAAGCAAUAUUACGAGAG | -3.24 ± 0.27 | -2.46 ± 0.24 |
| GGGAAGCAAUAUUACGAGGC | -3.08 ± 0.29 | -1.4 ± 0.2 |
| GGGAAGCAAUAUUACGAGUU | -2.86 ± 0.15 | -1.02 ± 0.099 |
| GGGAAGCAAUAUUACGAUGA | -0.977 ± 0.13 | -0.771 ± 0.13 |
| GGGAAGCAAUAUUACGCGCA | -0.0561 ± 0.11 | -0.304 ± 0.13 |

| Sequence | self-splicing fitness (ln) (30 °C) | self-splicing fitness (ln) (37 °C) |
| --- | --- | --- |
| GGGAAGCAAUAUUACGCGUA | -0.73 ± 0.14 | -0.267 ± 0.14 |
| GGGAAGCAAUAUUACGGACG | -0.846 ± 0.11 | -0.443 ± 0.13 |
| GGGAAGCAAUAUUACGGAGC | -1.91 ± 0.21 | -1.3 ± 0.21 |
| GGGAAGCAAUAUUACGGCCU | -3.14 ± 0.26 | -1.35 ± 0.25 |
| GGGAAGCAAUAUUACGGGCA | -1.9 ± 0.19 | 0.154 ± 0.21 |
| GGGAAGCAAUAUUACGGUAG | -2.65 ± 0.2 | -2.32 ± 0.24 |
| GGGAAGCAAUAUUACGGUGU | -2.2 ± 0.1 | -0.483 ± 0.13 |
| GGGAAGCAAUAUUACGUAAC | -2.91 ± 0.26 | -1.06 ± 0.18 |
| GGGAAGCAAUAUUACGUAGA | -1.36 ± 0.15 | -0.824 ± 0.19 |
| GGGAAGCAAUAUUACGUAUU | -1.87 ± 0.13 | -1.58 ± 0.15 |
| GGGAAGCAAUAUUACGUCGG | – | -0.827 ± 0.18 |
| GGGAAGCAAUAUUACGUGCC | – | -0.148 ± 0.38 |
| GGGAAGCAAUAUUACGUUAU | -2.98 ± 0.26 | -1.33 ± 0.18 |
| GGGCAGCAAUAUUACGACAC | -0.731 ± 0.26 | 0.302 ± 0.27 |
| GGGCAGCAAUAUUACGAGUC | -1.84 ± 0.21 | -1.81 ± 0.28 |
| GGGCAGCAAUAUUACGCAUC | -2.25 ± 0.41 | -0.733 ± 0.2 |
| GGGCAGCAAUAUUACGCGAA | -0.567 ± 0.073 | 0.0161 ± 0.099 |
| GGGCAGCAAUAUUACGCGCG | -0.63 ± 0.13 | -0.682 ± 0.14 |
| GGGCAGCAAUAUUACGCGGG | -1.76 ± 0.16 | -1.21 ± 0.2 |
| GGGCAGCAAUAUUACGCGUG | -0.165 ± 0.18 | -1.87 ± 0.22 |
| GGGCAGCAAUAUUACGGACG | -1.01 ± 0.056 | 0.591 ± 0.078 |
| GGGCAGCAAUAUUACGGAGC | -2.15 ± 0.19 | -1.12 ± 0.2 |
| GGGCAGCAAUAUUACGGCAC | -1.17 ± 0.16 | -0.328 ± 0.17 |

— the supplement of paper PMC7877785
